This is an account of results in PMC7864074, “Functions of Gle1 are governed by two distinct modes of self-association” (The Journal of Biological Chemistry, 2020).

Data set [1] has as its target SspB-Gle1^152–360 fusion protein (E. coli | human) (UniProt Q53GS7). Kind of data set: SEC-MALS; ACCORD (forced dimerization by SspB); Superose 6 10/300 GL; 20 mM HEPES (pH 7.6), 200 mM NaCl, 5% glycerol, 0.5 mM TCEP, 0.05% azide.
Data set [2] concerns the molecule itself. Kind of data set: native gel or EMSA; 4–15% acrylamide gradient native PAGE, 150 V for 90 min, Coomassie staining.
Data set [3] deals with the molecule itself. Kind of data set: SEC; S200 size-exclusion chromatography; 20 mM HEPES, pH 7.5, 200 mM NaCl, 0.5 mM TCEP, 10% glycerol; MBP as a size reference.

Substitutions are numbered along the chain they refer to.

Regarding “SspB-Gle1^152–360 fusion protein (from UniProt Q53GS7 152-360)”, in data set [1], the stoichiometry N is 2.

B1: Gle1^152–360 (domain or fragment, human, UniProt Q53GS7 152-360, looked up)
chain: EEQERKVQALSEMASEQLKRFDEWKELKQHKEFQDLREVMEKSSREALGHQEKLKAEHRHRAKILNLKLREAEQQRVKQAEQERLRKEEGQIRLRALYALQEEMLQLSQQLDASEQHKALLKVDLAAFQTRGNQLCSLISGIIRASSESSYPTAESQAEAERALREMRDLLMNLGQEITRACEDKRRQDEEEAQVKLQEAQMQQGPEAH
notes: also called coiled-coil domain; source: E. coli Rosetta, purified (amylose resin, on-column cleavage, 30% ammonium sulfate precipitation, S200 SEC)
For the molecule B1, in data set [2], the binding result was “binds”.

B2: Gle1^(1–360 Δ45–54) (domain or fragment, human, UniProt Q53GS7 1-360, looked up)
chain: MPSEGRCWETLKALRSSDKGRLCYYRDWLLRREDVLEECMSLPKHVLPHMQENQPLSETSPSSTSASALDQPSFVPKSPDASSAFSPASPATPNGTKGKDESQHTESMVLQSSRGIKVEGCVRMYELVHRMKGTEGLRLWQEEQERKVQALSEMASEQLKRFDEWKELKQHKEFQDLREVMEKSSREALGHQEKLKAEHRHRAKILNLKLREAEQQRVKQAEQERLRKEEGQIRLRALYALQEEMLQLSQQLDASEQHKALLKVDLAAFQTRGNQLCSLISGIIRASSESSYPTAESQAEAERALREMRDLLMNLGQEITRACEDKRRQDEEEAQVKLQEAQMQQGPEAH
notes: also called Gle1^(1–360 45–54); source: E. coli Rosetta, purified (amylose resin, on-column cleavage, S200 SEC)
Turning to B2, the binding result in data set [3] is “binds”.

B3: MBP-Gle1^1–152 (domain or fragment, human, UniProt Q53GS7 1-152, looked up)
chain: MPSEGRCWETLKALRSSDKGRLCYYRDWLLRREDVLEECMSLPKLSSYSGWVVEHVLPHMQENQPLSETSPSSTSASALDQPSFVPKSPDASSAFSPASPATPNGTKGKDESQHTESMVLQSSRGIKVEGCVRMYELVHRMKGTEGLRLWQE
notes: source: E. coli Rosetta, purified (amylose resin eluted with maltose, ion exchange); not shown: MBP, N-terminal, kept
With B3, in data set [3], the binding result is “binds”.

B4: Gle1^(1–360 8D) (domain or fragment, human, UniProt Q53GS7 1-360, looked up)
chain: MPSEGRCWETLKALRSSDKGRLCYYRDWLLRREDVLEECMSLPKLSSYSGWVVEHVLPHMQENQPLSETSPSSTSASALDQPSFVPKSPDASSAFSPASPATPNGTKGKDESQHTESMVLQSSRGIKVEGCVRMYELVHRMKGTEGLRLWQEEQERKVQALSEMASEQLKRFDEWKELKQHKEFQDLREVMEKSSREALGHQEKLKAEHRHRAKILNLKLREAEQQRVKQAEQERLRKEEGQIRLRADYADQEEMLQDSQQDDASEQHKALLKVDLAAFQTRGNQLCSLISGIIRASSESSYPTAESQAEAERADREDRDLDMNDGQEITRACEDKRRQDEEEAQVKLQEAQMQQGPEAH
notes: source: E. coli Rosetta, purified
In the case of B4, in data set [3], the binding result is “binds”.

B5: Gle1^1–360 (domain or fragment, human, UniProt Q53GS7 1-360, looked up)
chain: B4 chain with D248L, D251L, D258L, D262L, D315L, D318M, D322L, D325L
notes: human Gle1, N-terminal region, residues 1-360; also called WT Gle1^1–360; Gle1 N-terminal region; source: E. coli Rosetta, purified (amylose resin, on-column cleavage, S200 SEC)
With B5, the binding result in data set [3] is reported as “binds”.
